T1: MdAIL5 (Malus domestica (apple)?, UniProt A0A678R5P4 1-555)
T1 sequence: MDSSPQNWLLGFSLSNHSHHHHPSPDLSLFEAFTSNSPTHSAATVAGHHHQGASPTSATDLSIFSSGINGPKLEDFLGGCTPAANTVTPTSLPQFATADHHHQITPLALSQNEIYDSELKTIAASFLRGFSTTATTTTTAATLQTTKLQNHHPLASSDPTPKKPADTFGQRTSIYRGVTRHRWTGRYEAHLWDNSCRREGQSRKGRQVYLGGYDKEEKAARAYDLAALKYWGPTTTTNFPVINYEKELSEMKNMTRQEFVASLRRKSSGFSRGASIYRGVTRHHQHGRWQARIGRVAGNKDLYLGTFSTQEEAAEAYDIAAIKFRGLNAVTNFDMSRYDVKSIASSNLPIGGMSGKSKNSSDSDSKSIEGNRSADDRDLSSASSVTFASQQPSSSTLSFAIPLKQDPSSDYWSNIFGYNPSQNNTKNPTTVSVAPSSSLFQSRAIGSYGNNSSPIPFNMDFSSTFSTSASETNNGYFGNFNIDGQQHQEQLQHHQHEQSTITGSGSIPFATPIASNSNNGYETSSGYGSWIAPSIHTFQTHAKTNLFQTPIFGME


Molecular target: T1, MdAIL5
Assay: EMSA; LightShift Chemiluminescent EMSA Kit per manufacturer; buffer, salt, pH and temperature not stated
Details: protein: recombinant; tags: GST (N-terminal, pGEX-4T-1); cold version unlabeled; blunt

Binder | binding result
Probe with CACAATTGCCTATG (Table S1: MdARF9pro; text and Fig. 6e: MdHB14 promoter) (dsDNA) DNA 1: TGGGCTATTACATCCCACAATTGCCTATGAGTGGCCAATTTTTCCT DNA 2: AGGAAAAATTGGCCACTCATAGGCAATTGTGGGATGTAATAGCCCA | binds
Probe with CACGCATCCCGAAG (Table S1: MdHB14pro; text and Fig. 6d: MdARF9 promoter) (dsDNA) DNA 1: CGTTACACCAAACCACACGCATCCCGAAGCGCCGTTCACGTCAA DNA 2: TTGACGTGAACGGCGCTTCGGGATGCGTGTGGTTTGGTGTAACG | binds

From PMC10673654, “MdAIL5 overexpression promotes apple adventitious shoot regeneration by regulating hormone signaling and activating the expression of shoot development-related genes”
